{
  "source": "paper PMC3779284",
  "key": {"[1]": {"biological_target": "Calmodulin fluorescently labelled with Alexa Fluor 488 (UniProt P0DP23)", "experiment": "AUC"}, "[2]": {"biological_target": "Calmodulin fluorescently labelled with Alexa Fluor 488 (UniProt P0DP23)", "experiment": "AUC", "remark": "listed apart in the source"}},
  "note": "Where two headings read alike, the source gives them in different places.",
  "data": [
    {"substance": "nNOSred wt (rat neuronal nitric oxide synthase reductase domain, wild type) (domain or fragment)", "values": [
      {"measurement": "percent free calmodulin at 1:0.5 CaM:nNOSred", "setting": "[1]", "result": 40, "unit": "%"},
      {"measurement": "Kd", "setting": "[2]", "result": 0.167, "unit": "µM"},
      {"measurement": "percent free calmodulin at 1:0.5 CaM:nNOSred", "setting": "[2]", "result": 30.9, "unit": "%"}
    ]},
    {"substance": "nNOSred R753A (domain or fragment)", "values": [
      {"measurement": "Kd", "setting": "[2]", "result": 0.468, "unit": "µM"},
      {"measurement": "percent free calmodulin at 1:0.5 CaM:nNOSred", "setting": "[2]", "result": 64.6, "unit": "%"}
    ]}
  ]
}
